Laboratory results taken from article PMC12149299 (Cell Discovery, 2025).

Experiments:
[1] = target: T1, HIV-1 gp120 protein from the JRCSF.JB strain (HIV-1 group M subtype B, JRCSF (clone …, UniProt P20871, strain)); assay: ELISA; settings: both partners purified
[2] = target: HIV-1 Env on TNF-α-activated ACH-2 latent HIV-1 cells (HIV-1 group M subtype B, BRU/LAI (ACH-2 …, UniProt P03377, strain)); assay: flow cytometry on cells; settings: one partner purified
[3] = target: T2, HIV Env on HL2/3 cells (HIV-1 group M subtype B, HXB2 (stand-in …, UniProt P04578, strain)); assay: flow cytometry on cells; settings: one partner purified
T2 construct: source: HL2/3 cells (NIH AIDS Program), expressing HIV Env, on the cell surface

[4] = target: T1, HIV-1 gp120 protein from the JRCSF.JB …; assay: ELISA; antigens (2 μg/mL) coated on 96-well plates overnight at 4 °C; antibodies serially diluted in disruption buffer, 1 h; HRP goat anti-human IgG, ABTS, 405 nm; settings: both partners purified
[5] = target: HIV-1 gp120 protein from the YU2.DG strain (HIV-1 group M subtype B, YU-2 (clone …, UniProt P35961, strain)); assay: as above; settings: both partners purified
[6] = target: HIV-1 gp120 protein from the BaL.01 strain (HIV-1 subtype B, BaL.01, UniProt Q2MKA9, strain); assay: as above; settings: both partners purified

Measured: binding result

B1: CH235.12 (antibody, V domains shown)
VH: QVRLAQYGGGVKRLGATMTLSCVASGYTFNDYYIHWVRQAPGQGFELLGYIDPANGRPDYAGALRERLSFYRDKSMETLYMDLRSLRYDDTAMYYCVRNVGTAGSLLHYDHWGSGSPVIVSS
VL: EIVLTQSPATLSASPGERVTLTCRASRSVRNNVAWYQHKGGQSPRLLIYDASTRAAGVPARFSGSASGTEFTLAISNLESEDFTVYFCLQYNNWWTFGQGTRVDIK
binds: [1]

B2: FD22 (antibody, V domains shown)
VH: QVQLSQSGGGAVQPGKSLTLSCRAYGFHLFSYVVVWVRQTPQNGLEWVAGAASGGWPQEFMNSVRGRFSISRDDYTVSLQMNALRVDDSGLYFCAQERGLHRLDGAVKFGRWFRAWGQGSQVVVTS
VL: QSALTQPASVSGSPGQSITLSCTGADNSVSWYQVVPGRAPKLLIFEVNVRPSEVSDRFSGSKSGDTASLTISRLQIEDESDYYCVTRRGDVTYLFGSGTRVSVL
notes: also called FD22-biotin
not listed: [1]
binds: all other assays above
